# PMC9419707 (Nature, 2022)
# T1: His6–GFP–POU2F3 (UniProt Q9UKI9 1-436)
# T1 sequence (looked up): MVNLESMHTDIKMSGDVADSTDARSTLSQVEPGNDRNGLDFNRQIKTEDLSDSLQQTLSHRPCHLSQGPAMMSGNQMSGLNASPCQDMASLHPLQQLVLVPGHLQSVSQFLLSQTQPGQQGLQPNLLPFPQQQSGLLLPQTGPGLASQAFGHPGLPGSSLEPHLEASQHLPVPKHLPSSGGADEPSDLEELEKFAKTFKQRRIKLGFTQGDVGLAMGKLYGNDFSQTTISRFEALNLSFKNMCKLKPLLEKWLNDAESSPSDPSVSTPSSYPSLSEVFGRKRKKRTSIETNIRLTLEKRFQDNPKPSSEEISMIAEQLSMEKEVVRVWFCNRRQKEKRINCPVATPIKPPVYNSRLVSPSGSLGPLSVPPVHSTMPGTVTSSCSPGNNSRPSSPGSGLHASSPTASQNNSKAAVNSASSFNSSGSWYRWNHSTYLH
# Target: T1, His6–GFP–POU2F3
# Assay: SEC
binder,measurement,value
"Strep2SUMO–OCA-B (natural protein, UniProt Q16633 1-256, looked up) MLWQKPTAPEQAPAPARPYQGVRVKEPVKELLRRKRGHASSGAAPAPTAVVLPHQPLATYTTVGPSCLDMEGSVSAVTEEAALCAGWLSQPTPATLQPLAPWTPYTEYVPHEAVSCPYSADMYVQPVCPSYTVVGPSSVLTYASPPLITNVTTRSSATPAVGPPLEGPEHQAPLTYFPWPQPLSTLPTSTLQYQPPAPALPGPQFVQLPISIPEPVLQDMEDPRRAASSLTIDKLLLEEEDSDAYALNHTLSVEGF",binding result,binds
